Among the data in PMC7005851 are response (Abs values, retold here.

Experiment [1] addresses T1, *^#H chain of ΔLd-2C281 IgG*^#H*^#L (WT VH, all C-region Cys to Ser).
T1 chain: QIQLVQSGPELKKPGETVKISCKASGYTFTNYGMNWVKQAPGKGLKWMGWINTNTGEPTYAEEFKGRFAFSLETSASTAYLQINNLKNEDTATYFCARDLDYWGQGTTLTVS
In words: sandwich ELISA (anti-human Cκ capture). The following applies: chain shown with the change; lysates of HEK293 transfectants; empty vector est. 0.15; parent: est. 1.4; read off a plot.

The target in experiment [2] is *H chain of ΔLd-3D8 IgG1 variants ΔLd-*HL and ΔLd-*H*L (hinge Cys11 and Cys14 to Ser). Kind of experiment: sandwich ELISA (Protein L capture, AP-conjugated anti-human IgG/Fc detection). The following applies: chain shown with the change; no heat; lysate of ΔLd-3D8 *H*L transfectants; empty vector est. 0.20; parent: est. 2.2; read off a plot.
For experiment [3], the target named is *^#H chain of ΔLd-3D8 IgG*^#H*^#L (WT VH, all C-region Cys to Ser). Kind of experiment: sandwich ELISA (anti-human Cκ capture). The following applies: chain shown with the change; lysates of HEK293 transfectants; empty vector est. 0.15; parent: est. 1.7; read off a plot.
The target of experiment [4] is T2, *^#H chain of ΔLd-6C407 IgG*^#H*^#L (WT VH, all C-region Cys to Ser).
T2 chain: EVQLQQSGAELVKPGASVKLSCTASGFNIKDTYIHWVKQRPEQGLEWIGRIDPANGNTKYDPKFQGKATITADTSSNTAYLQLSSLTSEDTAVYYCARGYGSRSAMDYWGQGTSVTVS
Kind of experiment: sandwich ELISA (anti-human Cκ capture). The following applies: chain shown with the change; lysates of HEK293 transfectants; empty vector est. 0.15; parent: est. 1.9; read off a plot.

B1: m4 (L) and m3 (H), WT ΔLd-2C281 IgG *#H*#L: all C-region Cys of inter- and intrachain disulfide bonds to Ser (residue numbers not printed) (protein)
chain: DVVMTQTPLSLPVSLGDQASISCRSSQSLVHSNGNTYFHWFLQKPGQSPKLLIYKVSNRFSGVPDRFSGSGSGTDFTLKISRVEAEDLGVYFCSQSTHVPYTFGGGTKLEIK
On to B1, for which the response (Abs at 405 nm) in experiment [1] worked out at 0.15.

B2: m2 (L) and m1 (H), ΔLd-HL H:Cys11Ser (hinge); H:Cys14Ser (hinge); L:Cys107Ser (Cκ) (protein)
chain: DIVMSQSPSSLAVSAGEKVTMSCKSSQSLFNSRTRKNYLAWYQQKPGQSPKLLIYWASTRESGVPDRFTGSGPGTDFTLTISSVQAEDLAVYYCKQSYYHMYTFGSGTKLEIK
As to B2, the response (Abs at 405 nm) in experiment [2] turned out to be 2.3.

B3: m2 (L) and m1 (H), WT ΔLd-3D8 IgG *#H*#L: all C-region Cys of inter- and intrachain disulfide bonds to Ser (residue numbers not printed) (protein)
chain: DIVMSQSPSSLAVSAGEKVTMSCKSSQSLFNSRTRKNYLAWYQQKPGQSPKLLIYWASTRESGVPDRFTGSGPGTDFTLTISSVQAEDLAVYYCKQSYYHMYTFGSGTKLEIK
B3: the response (Abs at 405 nm) in experiment [3] was 0.15.

B4: m6 (L) and m5 (H), WT ΔLd-6C407 IgG *#H*#L: all C-region Cys of inter- and intrachain disulfide bonds to Ser (residue numbers not printed) (protein)
chain: DIVLTQSPASLAVSLGQRATISCRASKSVSTSGYSYMLWYQQKPGQPPKLLIYLASNLESGVPARFSGSGSGTDFTLNIHPVEEEDAATYYCQHSRELPWTFGGGTKLEIK
With B4, the response (Abs at 405 nm) in experiment [4] is 0.15.
